In test [1] the target is T1, WT rat sGC heme free (tween treated) (rat, UniProt P19686 1-690; P20595 1-619).
T1 construct: alpha1-StrepII/beta1 heterodimer made in Sf9 cells and purified; The heme was removed with 0.5% Tween20 for 20 min at 37 C; It has the same polypeptides as the heme-loaded form and differs only in lacking the heme; also called heme free sGC (as obtained by tween treatment); heme free version of wt rat sGC; not shown: C-terminal strep-tag (StrepII)
T1 sequence (looked up) 1: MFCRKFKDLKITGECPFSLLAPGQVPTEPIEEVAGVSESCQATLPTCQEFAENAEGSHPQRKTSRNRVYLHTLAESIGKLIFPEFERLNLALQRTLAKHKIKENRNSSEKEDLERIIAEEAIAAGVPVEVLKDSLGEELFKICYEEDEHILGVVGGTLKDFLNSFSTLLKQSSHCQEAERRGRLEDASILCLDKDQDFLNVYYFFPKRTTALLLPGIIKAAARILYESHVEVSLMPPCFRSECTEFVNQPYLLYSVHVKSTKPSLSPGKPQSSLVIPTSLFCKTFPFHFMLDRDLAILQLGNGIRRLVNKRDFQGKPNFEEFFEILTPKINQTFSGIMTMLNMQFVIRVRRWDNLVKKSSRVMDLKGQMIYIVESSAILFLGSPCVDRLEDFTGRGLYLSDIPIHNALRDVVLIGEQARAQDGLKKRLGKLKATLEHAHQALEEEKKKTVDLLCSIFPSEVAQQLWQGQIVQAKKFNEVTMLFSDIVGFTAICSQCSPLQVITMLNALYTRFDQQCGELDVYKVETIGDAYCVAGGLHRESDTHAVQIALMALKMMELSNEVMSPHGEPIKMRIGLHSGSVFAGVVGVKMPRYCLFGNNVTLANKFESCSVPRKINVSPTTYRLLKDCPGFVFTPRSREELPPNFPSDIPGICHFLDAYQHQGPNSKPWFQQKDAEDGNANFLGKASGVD
T1 sequence (looked up) 2: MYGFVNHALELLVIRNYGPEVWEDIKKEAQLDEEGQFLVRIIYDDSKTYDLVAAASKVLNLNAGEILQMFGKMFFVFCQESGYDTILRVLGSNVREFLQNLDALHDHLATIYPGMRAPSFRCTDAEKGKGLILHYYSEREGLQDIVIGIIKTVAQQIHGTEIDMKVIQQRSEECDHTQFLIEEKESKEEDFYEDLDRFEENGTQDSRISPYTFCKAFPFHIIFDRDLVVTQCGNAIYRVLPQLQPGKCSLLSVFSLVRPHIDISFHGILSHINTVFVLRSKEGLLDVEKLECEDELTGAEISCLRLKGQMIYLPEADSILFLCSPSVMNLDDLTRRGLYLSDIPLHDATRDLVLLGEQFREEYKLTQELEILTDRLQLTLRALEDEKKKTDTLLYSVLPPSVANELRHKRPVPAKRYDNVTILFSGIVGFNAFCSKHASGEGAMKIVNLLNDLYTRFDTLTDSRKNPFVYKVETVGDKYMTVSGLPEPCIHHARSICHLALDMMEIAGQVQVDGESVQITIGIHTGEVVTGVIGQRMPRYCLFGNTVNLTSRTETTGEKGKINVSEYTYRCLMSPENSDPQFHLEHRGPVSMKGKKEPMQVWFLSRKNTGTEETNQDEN
The experiment in a line: SPR.

For test [2], the target named is T1, WT rat sGC heme free (tween treated). The experiment in a line: capture ELISA: IgG coated at 5 ug/mL, tween-treated (heme-free) WT rat sGC titrated, streptavidin-HRP, OD 450 nm; the axis gives the sGC concentration. How it is done:
(§1) To determine by ELISA the capacity of individual IgGs to discriminate the apo (heme free) version of wt rat sGC from the heme-loaded version, 5 μg/mL of each individual IgG were coated in Nunc® maxisorp 96-well plates overnight at 4° C. After a minimum 16 hours adsorption period, coated maxisorp plates were blocked with PBS-3% skimmed milk (v/v) prior to the addition of purified rat wt sGC proteins previously treated with 0.5% (v/v) tween to remove the heme group, or not-treated thus preserving heme group. Successful entrapment of heme free or heme-loaded wt rat sGC molecules by reformatted IgG molecules was detected with streptavidin-HRP.

For test [3] the target is unchanged. The test is described as above. The procedure: as §1
The source holds these as a separate data set.

Test [4] concerns the target rat apo-sGC (H105F) (rat) (UniProt P19686). The test can be described thus: capture ELISA: IgG coated at 5 ug/mL, rat apo-sGC (H105F) titrated, streptavidin-HRP, OD 450 nm; the axis gives the sGC concentration.
In test [5] the target is Human apo-sGC (H105F) (human) (UniProt Q02108). The experiment in a line: SPR.
Sequence of Human apo-sGC (H105F) (human) (Q02108 whole entry, stated change not applied): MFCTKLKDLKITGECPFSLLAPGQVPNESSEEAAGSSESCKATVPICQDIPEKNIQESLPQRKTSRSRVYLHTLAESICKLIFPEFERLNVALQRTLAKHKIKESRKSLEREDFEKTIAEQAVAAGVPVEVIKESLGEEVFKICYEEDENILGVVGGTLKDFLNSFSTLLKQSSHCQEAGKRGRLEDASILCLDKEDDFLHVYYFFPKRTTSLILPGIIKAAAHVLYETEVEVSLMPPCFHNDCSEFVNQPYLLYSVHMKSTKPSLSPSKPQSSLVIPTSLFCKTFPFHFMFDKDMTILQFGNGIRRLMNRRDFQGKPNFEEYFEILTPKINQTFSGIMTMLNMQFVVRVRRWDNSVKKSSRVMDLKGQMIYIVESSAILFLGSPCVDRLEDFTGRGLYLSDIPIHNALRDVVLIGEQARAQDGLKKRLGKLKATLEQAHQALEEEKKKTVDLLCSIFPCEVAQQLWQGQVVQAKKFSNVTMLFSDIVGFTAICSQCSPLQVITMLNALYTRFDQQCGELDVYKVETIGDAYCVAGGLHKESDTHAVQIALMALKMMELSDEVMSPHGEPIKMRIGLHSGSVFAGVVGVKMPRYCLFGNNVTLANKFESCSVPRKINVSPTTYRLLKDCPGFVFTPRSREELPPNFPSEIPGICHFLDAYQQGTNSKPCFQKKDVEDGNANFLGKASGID
For test [6], the target named is rat apo-sGC (H105F) (rat) (UniProt P19686). The experiment in a line: SPR.

Where two headings read alike, the source gives them in different places.

B1: TPP15715 (antibody, human IgG1, lambda, V domains shown)
VH: EVQLLESGGGLVQPGGSLRLSCAASGFTFSNYAMSWVRQAPGKGLEWVSAISGSGGSTFYADSVKGRFTISRDNSKNTLYLQMNSLRAEDTAVYYCATDGTDAFDIWGQGTLVTVSS
VL: QSVLTQPPSASGTPGQRVTISCTGSSSNIGAGYDVHWYQQLPGTAPKLLIYENDRRPSGVPDRFSGSKSGTSASLAISGLRSEDEADYYCAAWDDSLNGPLFGGGTKLTVLG
notes: also called 5H10; TPP15715_5H10
B1 returned a Kd in test [1] of 50 nM. Besides, the “EC50 (read off the curve)” value was roughly 50 nM in test [2] and roughly 20 nM in test [3].

B2: TPP16284 (antibody, human IgG1, lambda, V domains shown)
VH: EVQLLESGGGLVQPGGSLRLSCAASGFTFSSYAMSWVRQAPGKGLEWVSGVSWNGSRTHYADSVKGRFTISRDNSKNTLYLQMNSLRAEDTAVYYCARERLGKWYFDLWGRGTLVTVSS
VL: QSVLTQPPSASGTPGQRVTISCSGSSSNIGNNAVNWYQQLPGTAPKLLIYGNSNRPSGVPDRFSGSKSGTSASLAISGLRSEDEADYYCQSYDSSLSGVFGGGTKLTVLG
Take B2: the EC50 (read off the curve) in test [4] was 70 nM. For the same molecule, the Kd worked out at 146 nM in test [5] and 67 nM in test [6].
